Starred links: 1 amine or outer side, 2 acyl side, 3 side chain; linkers in the order of their positions; H or OH if unused. Positions of bridges follow the written chain, without caps; N, C: chain ends. Non-standard residues stand in square brackets, D forms with d. dPhe(4-NHAc) = 4-acetamido-D-phenylalanine, CC(=O)Nc1ccc(C[C@@H](N[*:1])C(=O)[*:2])cc1; dPhe(4-tBu) = CC(C)(C)c1ccc(C[C@@H](N)C(=O)O)cc1; Phe(4-Br) = N[C@@H](Cc1ccc(Br)cc1)C(=O)O; dPhe(4-Br) = N[C@H](Cc1ccc(Br)cc1)C(=O)O; dPhe(4-I) = N[C@H](Cc1ccc(I)cc1)C(=O)O; d(αMeF) = C[C@@](N)(Cc1ccccc1)C(=O)O; NMeR = CN[C@@H](CCCNC(=N)N)C(=O)O; Nle = CCCC[C@H](N)C(=O)O; R2 = not defined here
B1: CTX-1233 (peptide)
peptide: Ac-R[Nle]CH[dPhe(4-I)]R[dW]C-NH2
modifications: disulfide 3-8
SMILES: CCCC[C@H](NC(=O)[C@H](CCCNC(=N)N)NC(C)=O)C(=O)N[C@H]1CSSC[C@@H](C(N)=O)NC(=O)[C@@H](Cc2c[nH]c3ccccc23)NC(=O)[C@H](CCCNC(=N)N)NC(=O)[C@@H](Cc2ccc(I)cc2)NC(=O)[C@H](Cc2c[nH]cn2)NC1=O
B2: CTX-1219 (peptide)
peptide: Ac-RC[dA]R[dPhe(4-Br)]R[dW]CRFG-OH
modifications: disulfide 2-8
SMILES: CC(=O)N[C@@H](CCCNC(=N)N)C(=O)N[C@H]1CSSC[C@@H](C(=O)N[C@@H](CCCNC(=N)N)C(=O)N[C@@H](Cc2ccccc2)C(=O)NCC(=O)O)NC(=O)[C@@H](Cc2c[nH]c3ccccc23)NC(=O)[C@H](CCCNC(=N)N)NC(=O)[C@@H](Cc2ccc(Br)cc2)NC(=O)[C@H](CCCNC(=N)N)NC(=O)[C@@H](C)NC1=O
B3: CTX-1249 (peptide)
peptide: Ac-RC[dA]P[dPhe(4-Br)]R[dW]C-NH2
modifications: disulfide 2-8
SMILES: CC(=O)N[C@@H](CCCNC(=N)N)C(=O)N[C@H]1CSSC[C@@H](C(N)=O)NC(=O)[C@@H](Cc2c[nH]c3ccccc23)NC(=O)[C@H](CCCNC(=N)N)NC(=O)[C@@H](Cc2ccc(Br)cc2)NC(=O)[C@@H]2CCCN2C(=O)[C@@H](C)NC1=O
B4: CTX-1218 (peptide)
peptide: Ac-RC[dA]R[dPhe(4-Br)]R[dW]CK-NH2
modifications: disulfide 2-8
SMILES: CC(=O)N[C@@H](CCCNC(=N)N)C(=O)N[C@H]1CSSC[C@@H](C(=O)N[C@@H](CCCCN)C(N)=O)NC(=O)[C@@H](Cc2c[nH]c3ccccc23)NC(=O)[C@H](CCCNC(=N)N)NC(=O)[C@@H](Cc2ccc(Br)cc2)NC(=O)[C@H](CCCNC(=N)N)NC(=O)[C@@H](C)NC1=O
B5: CTX-1248 (peptide)
peptide: Ac-RC[dA][NMeR][dPhe(4-Br)]R[dW]C-NH2
modifications: disulfide 2-8
SMILES: CC(=O)N[C@@H](CCCNC(=N)N)C(=O)N[C@H]1CSSC[C@@H](C(N)=O)NC(=O)[C@@H](Cc2c[nH]c3ccccc23)NC(=O)[C@H](CCCNC(=N)N)NC(=O)[C@@H](Cc2ccc(Br)cc2)NC(=O)[C@H](CCCNC(=N)N)N(C)C(=O)[C@@H](C)NC1=O
B6: CTX-1222 (peptide)
peptide: Ac-RC[dA]R[dPhe(4-Br)]R[dW]CR[dF]-NH2
modifications: disulfide 2-8
SMILES: CC(=O)N[C@@H](CCCNC(=N)N)C(=O)N[C@H]1CSSC[C@@H](C(=O)N[C@@H](CCCNC(=N)N)C(=O)N[C@H](Cc2ccccc2)C(N)=O)NC(=O)[C@@H](Cc2c[nH]c3ccccc23)NC(=O)[C@H](CCCNC(=N)N)NC(=O)[C@@H](Cc2ccc(Br)cc2)NC(=O)[C@H](CCCNC(=N)N)NC(=O)[C@@H](C)NC1=O
B7: CTX-1231 (peptide)
peptide: Ac-R[Nle]CH[dPhe(4-Br)]R[dW]C-NH2
modifications: disulfide 3-8
SMILES: CCCC[C@H](NC(=O)[C@H](CCCNC(=N)N)NC(C)=O)C(=O)N[C@H]1CSSC[C@@H](C(N)=O)NC(=O)[C@@H](Cc2c[nH]c3ccccc23)NC(=O)[C@H](CCCNC(=N)N)NC(=O)[C@@H](Cc2ccc(Br)cc2)NC(=O)[C@H](Cc2c[nH]cn2)NC1=O
B8: CTX-1220 (peptide)
peptide: Ac-RC[dA]R[dPhe(4-Br)]R[dW]CRF-NH2
modifications: disulfide 2-8
SMILES: CC(=O)N[C@@H](CCCNC(=N)N)C(=O)N[C@H]1CSSC[C@@H](C(=O)N[C@@H](CCCNC(=N)N)C(=O)N[C@@H](Cc2ccccc2)C(N)=O)NC(=O)[C@@H](Cc2c[nH]c3ccccc23)NC(=O)[C@H](CCCNC(=N)N)NC(=O)[C@@H](Cc2ccc(Br)cc2)NC(=O)[C@H](CCCNC(=N)N)NC(=O)[C@@H](C)NC1=O
B9: CTX-1226 (peptide)
peptide: R2-RC[dA]R[dPhe(4-Br)]R[dW]C-NH2
modifications: disulfide 2-8; reading uncertain; also: printed as N-term. Mod. R2; Arg-cyclo(Cys-D-Ala-Arg-D-Phe(4-Br)-Arg-D-Trp-Cys)-NH2
B10: CTX-1237 (peptide)
peptide: Ac-RC[dA]R[dY]R[dW]C-NH2
modifications: disulfide 2-8
SMILES: CC(=O)N[C@@H](CCCNC(=N)N)C(=O)N[C@H]1CSSC[C@@H](C(N)=O)NC(=O)[C@@H](Cc2c[nH]c3ccccc23)NC(=O)[C@H](CCCNC(=N)N)NC(=O)[C@@H](Cc2ccc(O)cc2)NC(=O)[C@H](CCCNC(=N)N)NC(=O)[C@@H](C)NC1=O
B11: CTX-1242 (peptide)
peptide: Ac-RC[dA]R[dPhe(4-tBu)]R[dW]C-NH2
modifications: disulfide 2-8
SMILES: CC(=O)N[C@@H](CCCNC(=N)N)C(=O)N[C@H]1CSSC[C@@H](C(N)=O)NC(=O)[C@@H](Cc2c[nH]c3ccccc23)NC(=O)[C@H](CCCNC(=N)N)NC(=O)[C@@H](Cc2ccc(C(C)(C)C)cc2)NC(=O)[C@H](CCCNC(=N)N)NC(=O)[C@@H](C)NC1=O
B12: CTX-1240 (peptide)
peptide: Ac-RC[dA]R[d(αMeF)]R[dW]C-NH2
modifications: disulfide 2-8
SMILES: CC(=O)N[C@@H](CCCNC(=N)N)C(=O)N[C@H]1CSSC[C@@H](C(N)=O)NC(=O)[C@@H](Cc2c[nH]c3ccccc23)NC(=O)[C@H](CCCNC(=N)N)NC(=O)[C@@](C)(Cc2ccccc2)NC(=O)[C@H](CCCNC(=N)N)NC(=O)[C@@H](C)NC1=O
B13: CTX-1217 (peptide)
peptide: Ac-RC[dA]R[dPhe(4-Br)]R[dW]CKP-NH2
modifications: disulfide 2-8
SMILES: CC(=O)N[C@@H](CCCNC(=N)N)C(=O)N[C@H]1CSSC[C@@H](C(=O)N[C@@H](CCCCN)C(=O)N2CCC[C@H]2C(N)=O)NC(=O)[C@@H](Cc2c[nH]c3ccccc23)NC(=O)[C@H](CCCNC(=N)N)NC(=O)[C@@H](Cc2ccc(Br)cc2)NC(=O)[C@H](CCCNC(=N)N)NC(=O)[C@@H](C)NC1=O
B14: CTX-1613 (peptide)
peptide: Ac-R[Nle]CR[dPhe(4-Br)]R[dW]C-NH2
modifications: disulfide 3-8
SMILES: CCCC[C@H](NC(=O)[C@H](CCCNC(=N)N)NC(C)=O)C(=O)N[C@H]1CSSC[C@@H](C(N)=O)NC(=O)[C@@H](Cc2c[nH]c3ccccc23)NC(=O)[C@H](CCCNC(=N)N)NC(=O)[C@@H](Cc2ccc(Br)cc2)NC(=O)[C@H](CCCNC(=N)N)NC1=O

target: T1, human MC4R receptor (human, UniProt P32245 1-332); assay: cell-based or functional assay
T1 sequence (P32245 whole entry): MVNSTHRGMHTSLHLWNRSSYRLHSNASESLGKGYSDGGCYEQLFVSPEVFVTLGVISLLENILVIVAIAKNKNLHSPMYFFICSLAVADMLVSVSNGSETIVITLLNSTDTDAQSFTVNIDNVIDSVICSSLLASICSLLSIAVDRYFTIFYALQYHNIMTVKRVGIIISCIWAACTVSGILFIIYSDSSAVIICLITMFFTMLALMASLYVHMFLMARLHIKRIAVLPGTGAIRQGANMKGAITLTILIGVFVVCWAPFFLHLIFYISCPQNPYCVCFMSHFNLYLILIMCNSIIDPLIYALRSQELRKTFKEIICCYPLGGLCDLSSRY

Row | MC4R selectivity vs MC1R | MC4R selectivity vs MC3R | Binder
1 | 0.26 | 1.88 | B1
2 | 1 | 1.99 | B2
3 | 5.08 | 0.45 | B3
4 | 1 | 1.85 | B4
5 | 1.31 | 1.36 | B5
6 | 0.1 | 0.33 | B6
7 | 0.07 | 0.05 | Ac-RC[dA]R[Phe(4-Br)]R[dW]C-NH2 (disulfide 2-8) [CTX-1215]
8 | 0.19 | 3.04 | B7
9 | 1.06 | 11 | Ac-RC[dA][dR][dPhe(4-Br)]R[dW]C-NH2 (disulfide 2-8) [CTX-1250]
10 | 1.53 | 3.82 | B8
11 | 1.33 | 3.21 | B9
12 | 0.24 | 0.08 | B10
13 | 0.07 | 0.07 | Ac-RC[dA]R[Phe(4-Br)]RWC-NH2 (disulfide 2-8) [CTX-1212]
14 | 0.08 | 0.02 | Ac-RC[dA]R[dPhe(4-NHAc)]R[dW]C-NH2 (disulfide 2-8) [CTX-1245]
15 | 0.64 | 0.08 | B11
16 | 0.46 | 0.41 | B12
17 | 1.12 | 2.73 | B13

target: human MC3R (human, UniProt P41968 1-323); assay: cell-based or functional assay
Sequence (P41968 whole entry): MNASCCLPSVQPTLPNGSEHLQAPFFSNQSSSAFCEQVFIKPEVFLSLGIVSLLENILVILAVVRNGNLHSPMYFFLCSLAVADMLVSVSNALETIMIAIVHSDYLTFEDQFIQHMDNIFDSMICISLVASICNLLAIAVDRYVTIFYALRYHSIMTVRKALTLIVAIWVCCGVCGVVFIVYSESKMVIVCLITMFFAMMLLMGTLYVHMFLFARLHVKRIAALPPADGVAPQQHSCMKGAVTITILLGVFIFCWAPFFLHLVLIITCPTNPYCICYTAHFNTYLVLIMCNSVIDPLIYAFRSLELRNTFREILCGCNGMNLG

Row | % max activation [%] | cAMP EC50 [nM] | Binder
18 | 22 | 4.1 | B1
19 | 20 | 4.5 | B2
20 | 1.9 | 6.1 | B3
21 | 16 |  | B4
22 | 18 | 2.8 | B5
23 | 38 | 9.8 | B6
24 | 2.1 | 27 | Ac-RC[dA]R[Phe(4-Br)]R[dW]C-NH2 (disulfide 2-8) [CTX-1215]
25 | 59 | 7 | B7
26 | 10 | 2090 | Ac-RC[dA][dR][dPhe(4-Br)]R[dW]C-NH2 (disulfide 2-8) [CTX-1250]
27 | 21 | 7.2 | B8
28 | 29 | 12 | B9
29 |  | 4 | B14
30 | 19 | 79 | B10
31 | 0.1 | 28 | Ac-RC[dA]R[Phe(4-Br)]RWC-NH2 (disulfide 2-8) [CTX-1212]
32 | 6.3 | 73 | Ac-RC[dA]R[dPhe(4-NHAc)]R[dW]C-NH2 (disulfide 2-8) [CTX-1245]
33 | 2.8 | 2.2 | B11
34 | 27 | 31 | B12
35 | 13 | 4 | B13

target: T1, human MC4R receptor; assay: cell-based or functional assay; remark: another data set of the same source

Row | % max activation [%] | cAMP EC50 [nM] | Binder
36 | 16 | 2.2 | B1
37 | 76 | 2.3 | B2
38 | 22 | 14 | B3
39 | 77 |  | B4
40 | 47 | 2 | B5
41 | 79 | 30 | B6
42 | 56 | 592 | Ac-RC[dA]R[Phe(4-Br)]R[dW]C-NH2 (disulfide 2-8) [CTX-1215]
43 | 64 | 2.3 | B7
44 | 8.7 | 185 | Ac-RC[dA][dR][dPhe(4-Br)]R[dW]C-NH2 (disulfide 2-8) [CTX-1250]
45 | 76 | 1.87 | B8
46 | 71 | 3.8 | B9
47 |  | 1.9 | B14
48 | 61 | 998 | B10
49 | 55 | 393 | Ac-RC[dA]R[Phe(4-Br)]RWC-NH2 (disulfide 2-8) [CTX-1212]
50 | 34 | 4450 | Ac-RC[dA]R[dPhe(4-NHAc)]R[dW]C-NH2 (disulfide 2-8) [CTX-1245]
51 | 5.8 | 26 | B11
52 | 81 | 76 | B12
53 | 69 | 1.5 | B13
